koff data for two molecules are collected here from PMC10127577 (2023).

The target of the assay is T1, CDTb protoxin (proCDTb), CDTb residues 43 to 876 (Clostridioides difficile, UniProt O32739 43-876).
T1 chain: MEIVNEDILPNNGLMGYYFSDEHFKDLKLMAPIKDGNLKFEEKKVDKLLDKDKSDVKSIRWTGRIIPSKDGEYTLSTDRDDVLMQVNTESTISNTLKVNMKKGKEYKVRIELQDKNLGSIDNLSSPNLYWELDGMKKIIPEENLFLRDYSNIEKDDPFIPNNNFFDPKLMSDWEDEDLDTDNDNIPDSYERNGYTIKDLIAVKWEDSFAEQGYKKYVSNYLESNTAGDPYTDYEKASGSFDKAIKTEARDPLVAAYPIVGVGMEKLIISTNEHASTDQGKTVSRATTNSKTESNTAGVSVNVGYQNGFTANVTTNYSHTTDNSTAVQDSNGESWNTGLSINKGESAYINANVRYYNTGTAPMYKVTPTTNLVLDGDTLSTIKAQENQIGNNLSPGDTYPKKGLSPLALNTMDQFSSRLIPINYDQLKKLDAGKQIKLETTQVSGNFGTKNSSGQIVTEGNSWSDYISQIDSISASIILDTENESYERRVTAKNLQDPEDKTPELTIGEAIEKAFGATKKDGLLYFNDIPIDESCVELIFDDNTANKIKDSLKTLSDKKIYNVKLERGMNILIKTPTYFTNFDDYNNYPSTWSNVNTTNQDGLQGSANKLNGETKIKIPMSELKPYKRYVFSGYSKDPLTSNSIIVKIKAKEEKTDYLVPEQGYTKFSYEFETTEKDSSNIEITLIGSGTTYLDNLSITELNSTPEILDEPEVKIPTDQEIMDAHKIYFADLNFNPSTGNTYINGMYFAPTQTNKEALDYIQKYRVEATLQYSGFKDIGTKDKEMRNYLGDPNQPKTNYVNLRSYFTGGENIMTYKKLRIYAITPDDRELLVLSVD
As to the kind of experiment: SPR.

As a reminder, the koff is the first-order rate constant of dissociation.

B1: BINTOXB/22 Fab (Fab, V domains shown)
VH: QIQLVQSGPELKKPGETVKISCKASGYTFTNYGMNWVKQAPGKDLKWMGWMSTYTGEPTYADDFKGRFAFSLETSASTAYLQINNLKNEDMATYFCARRGNYLSFDYWGQGTTLTVSS
VL: DIVMTQSHKFMSTSVGDRVSITCKASQDVSTAVGWYQQKPGQSPKLLIYSASYRYTGVPDRFTGSGSGTDFTFTISSVQAEDLAVYYCQQHYSPPFTFGSGTELEIK
As for B1, the koff was 0.00299 s⁻¹.

B2: BINTOXB/9 Fab (Fab, V domains shown)
VH: QVQLQQSGAELARPGASVKMSCKASGYTFTSYTMHWVKQRPGQGLEWIGYINPSNDYTSYNQKFKDKATLTADKSSSTAYMQLSSLTSEDSAVYYCARCWGYDPYYFDYWGQGTTLTVSS
VL: DIVMSQSPSLLAVSAGEKVTMSCKSSQSLLNSRTRKNYLAWYQQKPGQSPKVLIYWASTRESGVPDRFTGSGSGTDFTLTISSVQAEDLAVYYCKQSYNLLTFGAGTKLELK
On to B2, for which the koff amounted to 0.000227 s⁻¹. This koff is about 13-fold lower than that of the molecule before.
